From the Human Domainome abundance scans (Beltran et al. 2025)
± gives the uncertainty stated by the source.

B1: Tumor protein p73, residues 487 to 549; numbered along this chain, O15350 (parent)
chain: YHADPSLVSFLTGLGCPNCIEYFTSQGLQSIYHLQNLTIEDLGALKIPEQYRMTIWRGLQDLK

Variants of: B1
Experiment: abundance fitness (aPCA) (normalised: wild type 0, dead -1); higher = more abundant; growth selection in yeast, the domain comes from the species named
Conditions: Homo sapiens
Q29L showed an abundance fitness of 0.044 ± 0.028. Q29P gave an abundance fitness of 0.006 ± 0.037. With Q29F the abundance fitness was -0.005 ± 0.056. In the case of Q29G, the abundance fitness is reported as -0.006 ± 0.03. P5C gave an abundance fitness of 0.167 ± 0.11. In the case of P5I, the abundance fitness is reported as 0.209 ± 0.057. Work on P5V yielded an abundance fitness of 0.159 ± 0.037. P5K showed an abundance fitness of 0.238 ± 0.036. P5L showed an abundance fitness of 0.073 ± 0.035. Work on P5D yielded an abundance fitness of 0.201 ± 0.07. P5H showed an abundance fitness of 0.003 ± 0.064. P5F showed an abundance fitness of 0.046 ± 0.21. G15M gave an abundance fitness of -0.463 ± 0.059. G15R showed an abundance fitness of -0.153 ± 0.034. For G15Y, the abundance fitness was -0.462 ± 0.084. For G15Q, the abundance fitness was -0.124 ± 0.037. In the case of G15A, the abundance fitness is reported as -0.124 ± 0.043. Variant P48Q has an abundance fitness of -0.208 ± 0.044. Variant P48W has an abundance fitness of -1.07 ± 0.13. P48M showed an abundance fitness of -0.965 ± 0.091. P48F gave an abundance fitness of -1.3 ± 0.37. Variant P48S has an abundance fitness of -0.149 ± 0.037. P48A showed an abundance fitness of -0.091 ± 0.043. In the case of P48E, the abundance fitness is reported as -0.067 ± 0.042. Variant P48L has an abundance fitness of -1.1 ± 0.12. Variant P48R has an abundance fitness of -0.42 ± 0.038. For P48K, the abundance fitness was -0.212 ± 0.043. P48N showed an abundance fitness of -0.261 ± 0.1. L14D showed an abundance fitness of -0.923 ± 0.18. Work on L14T yielded an abundance fitness of -0.307 ± 0.066. L14V showed an abundance fitness of 0.024 ± 0.031. L14W gave an abundance fitness of -0.542 ± 0.073. L14S gave an abundance fitness of -0.407 ± 0.063. L14Y gave an abundance fitness of -0.315 ± 0.095. Work on L14I yielded an abundance fitness of 0.009 ± 0.051. Work on C16I yielded an abundance fitness of 0.146 ± 0.12. With C16Q the abundance fitness was -0.504 ± 0.092. In the case of C16T, the abundance fitness is reported as -0.163 ± 0.05. With C16R the abundance fitness was -0.407 ± 0.041. For C16F, the abundance fitness was -0.144 ± 0.084. Variant C16E has an abundance fitness of -0.8 ± 0.2. C16A gave an abundance fitness of -0.176 ± 0.066. In the case of C16W, the abundance fitness is reported as -0.773 ± 0.072. C16K showed an abundance fitness of -0.322 ± 0.062. With C16M the abundance fitness was 0.002 ± 0.065. For C16D, the abundance fitness was -0.923 ± 0.23. Variant C16G has an abundance fitness of -0.754 ± 0.091. With T38M the abundance fitness was -0.13 ± 0.049. Variant T38A has an abundance fitness of -0.014 ± 0.038. For T38F, the abundance fitness was -0.517 ± 0.13. With T38Q the abundance fitness was -0.018 ± 0.027. With T38G the abundance fitness was -0.088 ± 0.036. T38R gave an abundance fitness of -0.049 ± 0.028. Work on T38E yielded an abundance fitness of -0.107 ± 0.074. With T24V the abundance fitness was -0.077 ± 0.038. T24R gave an abundance fitness of -0.083 ± 0.031. Work on T24P yielded an abundance fitness of -0.461 ± 0.13. With T24M the abundance fitness was 0.018 ± 0.044. T24F gave an abundance fitness of -0.212 ± 0.079. Variant T24S has an abundance fitness of -0.007 ± 0.042. In the case of T54G, the abundance fitness is reported as -0.074 ± 0.038. Variant T54C has an abundance fitness of -0.13 ± 0.1. T54R gave an abundance fitness of 0.02 ± 0.043. With T54S the abundance fitness was -0.042 ± 0.075. Variant T54M has an abundance fitness of -0.116 ± 0.058. T54Q showed an abundance fitness of 0.028 ± 0.068. Variant T54W has an abundance fitness of -0.142 ± 0.061. For L7S, the abundance fitness was -0.831 ± 0.06. In the case of L7C, the abundance fitness is reported as -0.4 ± 0.062. L7R gave an abundance fitness of -1.01 ± 0.074. In the case of L7V, the abundance fitness is reported as -0.049 ± 0.033. For L7T, the abundance fitness was -0.157 ± 0.053. In the case of S25Y, the abundance fitness is reported as -0.266 ± 0.082. S25C showed an abundance fitness of 0.012 ± 0.059. S25G gave an abundance fitness of 0.029 ± 0.031. For S25D, the abundance fitness was -0.074 ± 0.14. Work on S25M yielded an abundance fitness of -0.051 ± 0.047. In the case of S25F, the abundance fitness is reported as -0.197 ± 0.069. L34M gave an abundance fitness of 0.021 ± 0.051. With L34N the abundance fitness was -0.536 ± 0.13. L34Q gave an abundance fitness of -0.529 ± 0.073. For L34A, the abundance fitness was 0.048 ± 0.039. For L34S, the abundance fitness was -0.319 ± 0.045. For G27H, the abundance fitness was -0.004 ± 0.053. Variant G27N has an abundance fitness of -0.055 ± 0.22. With G27D the abundance fitness was 0.06 ± 0.044. G27A showed an abundance fitness of -0.304 ± 0.075. For G27R, the abundance fitness was -0.024 ± 0.025. In the case of D61W, the abundance fitness is reported as -0.127 ± 0.056. With D61G the abundance fitness was 0.035 ± 0.047. For D61I, the abundance fitness was 0.006 ± 0.046. In the case of D61N, the abundance fitness is reported as -0.046 ± 0.041. In the case of D61H, the abundance fitness is reported as 0.039 ± 0.088. With D61L the abundance fitness was -0.087 ± 0.041. Work on D61Y yielded an abundance fitness of -0.157 ± 0.1. D61Q showed an abundance fitness of -0.126 ± 0.053. R52H gave an abundance fitness of 0.054 ± 0.061. R52T showed an abundance fitness of 0.009 ± 0.045. R52F gave an abundance fitness of -0.53 ± 0.42. R52D gave an abundance fitness of -0.425 ± 0.47. Work on I31M yielded an abundance fitness of 0.012 ± 0.053. With I31R the abundance fitness was -0.057 ± 0.033. In the case of I31N, the abundance fitness is reported as -0.086 ± 0.051. In the case of I31K, the abundance fitness is reported as -0.11 ± 0.051. I31W showed an abundance fitness of -0.025 ± 0.038. I31Q gave an abundance fitness of 0.026 ± 0.052. With I31H the abundance fitness was -0.156 ± 0.06. L28W gave an abundance fitness of -0.16 ± 0.039. L28K showed an abundance fitness of 0.005 ± 0.043. L28G gave an abundance fitness of -0.289 ± 0.032. For L28I, the abundance fitness was -0.041 ± 0.065. In the case of L28D, the abundance fitness is reported as -0.261 ± 0.081. For L28Y, the abundance fitness was -0.058 ± 0.051. In the case of L28C, the abundance fitness is reported as 0.021 ± 0.044. With A44N the abundance fitness was -0.061 ± 0.13. For A44T, the abundance fitness was -0.046 ± 0.063. A44Q showed an abundance fitness of 0.036 ± 0.052. With A44Y the abundance fitness was -0.007 ± 0.067. A44F showed an abundance fitness of 0.011 ± 0.095. Work on A44G yielded an abundance fitness of 0.072 ± 0.031. A44R showed an abundance fitness of 0.135 ± 0.028. A44H showed an abundance fitness of -0.021 ± 0.063. G58D gave an abundance fitness of -0.528 ± 0.086. For G58L, the abundance fitness was -1.02 ± 0.1. In the case of G58W, the abundance fitness is reported as -0.932 ± 0.12. G58V showed an abundance fitness of -0.846 ± 0.082. With L11Q the abundance fitness was -0.053 ± 0.11. Work on L11E yielded an abundance fitness of -0.825 ± 0.1. Work on L11N yielded an abundance fitness of -1.12 ± 0.37. Variant L11Y has an abundance fitness of -0.518 ± 0.1. With Y51Q the abundance fitness was -0.124 ± 0.1. Y51A gave an abundance fitness of -0.005 ± 0.076. Work on Y51M yielded an abundance fitness of -0.189 ± 0.048. Variant Y51C has an abundance fitness of -0.083 ± 0.071. With Y51D the abundance fitness was -0.072 ± 0.18. Y51N showed an abundance fitness of -0.139 ± 0.11. Variant L37I has an abundance fitness of -0.058 ± 0.071. For L37E, the abundance fitness was -0.667 ± 0.074. For L37N, the abundance fitness was -0.426 ± 0.21. Variant E49N has an abundance fitness of 0.077 ± 0.12. Variant E49G has an abundance fitness of -0.123 ± 0.034. With E49P the abundance fitness was 0.026 ± 0.066. E49F showed an abundance fitness of -0.355 ± 0.23. With W56M the abundance fitness was -0.049 ± 0.05. For W56Y, the abundance fitness was 0.037 ± 0.066. Variant W56G has an abundance fitness of -0.128 ± 0.035. W56N showed an abundance fitness of -0.137 ± 0.08. W56S gave an abundance fitness of 0.011 ± 0.042. W56R showed an abundance fitness of -0.163 ± 0.029. With S30Q the abundance fitness was 0.115 ± 0.041. Variant S30M has an abundance fitness of -0.094 ± 0.22. With S30R the abundance fitness was -0.043 ± 0.025. Work on S30H yielded an abundance fitness of -0.027 ± 0.065. With S30F the abundance fitness was -0.423 ± 0.079. I20N gave an abundance fitness of -0.282 ± 0.044. Variant I20H has an abundance fitness of -0.069 ± 0.044. I20R gave an abundance fitness of -0.111 ± 0.033. I20M showed an abundance fitness of 0.003 ± 0.038. Work on I20G yielded an abundance fitness of -0.269 ± 0.036. For I20K, the abundance fitness was -0.185 ± 0.05. Variant H33I has an abundance fitness of -0.216 ± 0.072. For H33M, the abundance fitness was -0.088 ± 0.052. H33V showed an abundance fitness of -0.059 ± 0.034. H33K showed an abundance fitness of 0.112 ± 0.041. Work on H33W yielded an abundance fitness of -0.566 ± 0.07. In the case of H33R, the abundance fitness is reported as -0.055 ± 0.031. E21R gave an abundance fitness of -0.009 ± 0.03.
